The results in this text go back to the supplement of paper PMC7125110.

B1: glmS ribozyme (parent)
chain: AUAAAAGCGCCAGAACUACAGAAAUGUAGUUGACGAGGAGGAGGUUUAUCGAAUUUUCGGCGGAUGCCUCCAAA

Holding throughout (conditions): with glucosamine-6-phosphate
Data set [1] covers variants of B1. The data set is described as follows: self-cleavage kobs at 160 uM GlcN6P; higher = faster cleavage; RNA array. A digest of the protocol: (§1)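 Glucosamine-6-phosphate (40 μM to 10 mM) in HEPES/KCl/Mg(OAc)2 buffer was flowed over sequenced MiSeq chips, and tiles were imaged over ~14 h. Barcoded ribozyme variants there had been transcribed in situ by E. coli RNA polymerase and were tracked through a hybridised Cy3 probe at 37 °C. One- or two-exponential decay fits to per-tile medians, normalised to baseline and to non-cleaving reference variants, gave kobs. kcat and KM came from weighted Michaelis–Menten fits across concentrations.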

Variants of B1 are the subject of data set [2]. Nature of the data set: self-cleavage kobs at 2500 uM GlcN6P; higher = faster cleavage; RNA array. A digest of the protocol:
as §1

The variants in data set [3] derive from B1. Nature of the data set: self-cleavage kobs at 640 uM GlcN6P; higher = faster cleavage; RNA array. A digest of the protocol:
as §1

Data set [4] covers variants of B1. Nature of the data set: self-cleavage kobs at 10000 uM GlcN6P; higher = faster cleavage; RNA array. A digest of the protocol: as §1

± gives the standard error. Fewer inactive variants are shown than the library holds.

Take AUAAAAGCGCCAGAACUACAGAAAUGUAGUUGUAGAGGAGGAGGUUUAUCGAAUUUUUGGCGGAUGCCUCCAAA [A33U C34A C58U]: the “self-cleavage kobs at 160 uM GlcN6P” value in the data set with glucosamine-6-phosphate [1] was less than 1e-05 s⁻¹. In the data set with glucosamine-6-phosphate [2], the “self-cleavage kobs at 2500 uM GlcN6P” value is less than 1e-05 s⁻¹.

AUAAAAGCGCCACGACUACAGAAAUGUAGUUAACGAGGAGGAGGUUUAUCGAAUUUUCGGCGGAUGCCUCCAAA [G13C A14G G32A]: the “self-cleavage kobs at 160 uM GlcN6P” value with glucosamine-6-phosphate [1] was 0.000606 ± 0.00018 s⁻¹. In addition, the “self-cleavage kobs at 640 uM GlcN6P” value in the data set with glucosamine-6-phosphate [3] was 0.00264 ± 0.00054 s⁻¹. The “self-cleavage kobs at 2500 uM GlcN6P” value with glucosamine-6-phosphate [2] was 0.00874 ± 0.0043 s⁻¹.

In the case of AUAAAAGCGCCAGAACUACAGAAAUGUAGUUGACGAUGAGGCGGUUUAUUGAAUUUUCGGCGGAUGCGUCCAAA [G37U A42C C50U C68G], the “self-cleavage kobs at 160 uM GlcN6P” value in the data set with glucosamine-6-phosphate [1] was less than 1e-05 s⁻¹. Also, the “self-cleavage kobs at 640 uM GlcN6P” value in the data set with glucosamine-6-phosphate [3] is less than 1e-05 s⁻¹. The “self-cleavage kobs at 2500 uM GlcN6P” value with glucosamine-6-phosphate [2] was less than 1e-05 s⁻¹.

On to AUAAAAGCGCCAGAACUACAGAAAUGUAGUUGACGAGGAGGAGGUUUAUCUAAUUCUCGGCGGAUGCCUGCAAA [G51U U56C C70G], for which, in the data set with glucosamine-6-phosphate [1], the “self-cleavage kobs at 160 uM GlcN6P” value was less than 1e-05 s⁻¹. Further, in the data set with glucosamine-6-phosphate [4], the “self-cleavage kobs at 10000 uM GlcN6P” value is less than 1e-05 s⁻¹.

Consider AUAAAAGCGCCUGAACUACAGAAAUGUAGUUGACGAGGAGGAGGGGUAUCGAAUUUUCGGCGGAUGCCUCCAAA [A12U U45G U46G], for which the “self-cleavage kobs at 160 uM GlcN6P” value with glucosamine-6-phosphate [1] amounted to 0.000419 ± 0.00015 s⁻¹. Moreover, the “self-cleavage kobs at 2500 uM GlcN6P” value with glucosamine-6-phosphate [2] was determined as 0.00499 ± 0.0017 s⁻¹.

For AUAAAAGCGCCAGAACUACAGAAAUGUAGUUGACGAGGAGGAGGUUUAUGGAAUUUUCGGCGGAUGGCUCCAAA [C50G C67G], the “self-cleavage kobs at 160 uM GlcN6P” value with glucosamine-6-phosphate [1] was determined as 7.32e-05 ± 1.3e-05 s⁻¹. For the same variant, the “self-cleavage kobs at 640 uM GlcN6P” value with glucosamine-6-phosphate [3] was 5e-05 ± 7.7e-06 s⁻¹.

On to AUAAAAGCCCCAGAACUACAGAAAUGUAGUUGAAGAGGAGGAGGUUUAUCGAAUUUUCGGCGGAUGCCUCCAAA [G9C C34A], for which the “self-cleavage kobs at 160 uM GlcN6P” value with glucosamine-6-phosphate [1] is less than 1e-05 s⁻¹. Besides, the “self-cleavage kobs at 640 uM GlcN6P” value in the data set with glucosamine-6-phosphate [3] was less than 1e-05 s⁻¹. The “self-cleavage kobs at 2500 uM GlcN6P” value with glucosamine-6-phosphate [2] was less than 1e-05 s⁻¹.

On to AUAAAAGCGCCAGAACUACAGAAAUGUAGUUGCCGAGGAGGAGGUUUAUCGAAUUUUCGGCAAAUGCCUCCAAA [A33C G62A G63A], for which the “self-cleavage kobs at 160 uM GlcN6P” value with glucosamine-6-phosphate [1] is less than 1e-05 s⁻¹. Besides, in the data set with glucosamine-6-phosphate [2], the “self-cleavage kobs at 2500 uM GlcN6P” value is less than 1e-05 s⁻¹.

Turning to AUAAAAGCGGCAGAACUACAGAAAUGUAGUUGACCAGGAGGAGGUUUAUCGAAUUUUCGGCGGAUGCCUCCAAA [C10G G35C], the “self-cleavage kobs at 160 uM GlcN6P” value with glucosamine-6-phosphate [1] is less than 1e-05 s⁻¹. Besides, the “self-cleavage kobs at 640 uM GlcN6P” value with glucosamine-6-phosphate [3] is less than 1e-05 s⁻¹. In the data set with glucosamine-6-phosphate [4], the “self-cleavage kobs at 10000 uM GlcN6P” value was less than 1e-05 s⁻¹.

As for AUAAAAACGACAGAAGUACAGAAAUGUAAUUGACGAGGAGGUGGUUUAUCUAAUUUUCGGUGGAUGCCUCCAAA [G7A C10A C16G G29A A42U G51U C61U], the “self-cleavage kobs at 160 uM GlcN6P” value in the data set with glucosamine-6-phosphate [1] was less than 1e-05 s⁻¹. Also, the “self-cleavage kobs at 2500 uM GlcN6P” value with glucosamine-6-phosphate [2] was less than 1e-05 s⁻¹. Also, in the data set with glucosamine-6-phosphate [4], the “self-cleavage kobs at 10000 uM GlcN6P” value was less than 1e-05 s⁻¹.

For AUAAAAGGUCCUGAAGUACAGAAAUGUAGUUGACGAGGAGGAGGUUUAUCGAAUUUUCGGCGGAUGCCUCCAAA [C8G G9U A12U C16G], the “self-cleavage kobs at 160 uM GlcN6P” value in the data set with glucosamine-6-phosphate [1] was less than 1e-05 s⁻¹. The “self-cleavage kobs at 640 uM GlcN6P” value with glucosamine-6-phosphate [3] was less than 1e-05 s⁻¹.

Turning to AUAAAAGCGCCAGAAGUACAGAAAUGUAGUUGACGAGGAGGAGGUUUAUCGAAUUUUCGGCCGAUGCCUCCAAA [C16G G62C], in the data set with glucosamine-6-phosphate [1], the “self-cleavage kobs at 160 uM GlcN6P” value was less than 1e-05 s⁻¹. The “self-cleavage kobs at 640 uM GlcN6P” value in the data set with glucosamine-6-phosphate [3] is less than 1e-05 s⁻¹. Further, the “self-cleavage kobs at 2500 uM GlcN6P” value in the data set with glucosamine-6-phosphate [2] was less than 1e-05 s⁻¹.

For the variant AUAAAGGCGCCAGAACUACAGAAAUGUAGUUUACGAGGAGGAGGUUUAUGGAAUUUGCGGAGGAUUCCUCCAAA [A6G G32U C50G U57G C61A G66U], the “self-cleavage kobs at 160 uM GlcN6P” value with glucosamine-6-phosphate [1] was found to be 0.000258 ± 4.1e-05 s⁻¹. Further, the “self-cleavage kobs at 2500 uM GlcN6P” value with glucosamine-6-phosphate [2] stood at 0.000553 ± 9.8e-05 s⁻¹. The “self-cleavage kobs at 10000 uM GlcN6P” value with glucosamine-6-phosphate [4] is 9.54e-05 ± 1.9e-05 s⁻¹.

In the case of AUAAAAGCGCCAGAGCUACAGAAAUGUAGUUGACGAGGAGGAGGUUCAUCGAAUUUUCGGCGAAUGCCUCCAAA [A15G U47C G63A], in the data set with glucosamine-6-phosphate [1], the “self-cleavage kobs at 160 uM GlcN6P” value was less than 1e-05 s⁻¹. Further, the “self-cleavage kobs at 640 uM GlcN6P” value with glucosamine-6-phosphate [3] is less than 1e-05 s⁻¹. Besides, the “self-cleavage kobs at 2500 uM GlcN6P” value with glucosamine-6-phosphate [2] was less than 1e-05 s⁻¹.

As for AUAAAACGGCCAGAACUACAGAAAUGUAGCUGACGAGGAGGAGGUUUAUCGAAUUUUCGGCGGAUGCCUCCAAA [G7C C8G U30C], the “self-cleavage kobs at 160 uM GlcN6P” value in the data set with glucosamine-6-phosphate [1] is less than 1e-05 s⁻¹. In addition, the “self-cleavage kobs at 640 uM GlcN6P” value with glucosamine-6-phosphate [3] was less than 1e-05 s⁻¹.
